Tested on: Cn1c(=O)ccc2ccc(F)c(CCNC[C@H]3CN(c4cnc5c(n4)NC(=O)CO5)C(=O)O3)c21
Test: MATE2-K transport in HEK293 cells
Format: in vitro ADME, human
Conditions: other: HEK293 cells; 37.0 °C

Q: Which results are given for MATE2-K (Homo sapiens)?
A: Km: 469 µM; Vmax: 111 pmol/mg/min

From publication PMC11410943
